In publication PMC9817892:

How the values were obtained:
[1] = molecular target: p63 (UniProt Q9H3D4); assay: co-immunoprecipitation from metastatic tissue; settings: reference: Nur77 wild type; sites S351
[2] = molecular target: p63 (UniProt Q9H3D4); assay: co-immunoprecipitation, Western blot; settings: reference: Nur77 wild type; sites S351

binding against the reference [1]: weaker | binding against the reference [2]: lost
Substance: Nur77 (from UniProt P22736) Nur77 S351A
